Measurements published in paper PMC3344845 (2012).

Target: chicken avidin (Gallus gallus (Chicken), UniProt P02701)
Assay: ITC

chicken avidin, sequence (P02701 25-152): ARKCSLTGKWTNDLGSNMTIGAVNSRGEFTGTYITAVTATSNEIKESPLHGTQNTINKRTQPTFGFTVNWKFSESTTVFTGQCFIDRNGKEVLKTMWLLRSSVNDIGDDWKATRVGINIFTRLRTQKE

binding result: no binding
B1: Brad-tag (synthetic peptide SEKLSNTK) (protein)
chain: SEKLSNTK
